According to patent US5948653:

Target: RecA (Escherichia coli?) (UniProt P0A7G6)
Assay: cell_activity

Chain of RecA (Escherichia coli?) (P0A7G6 2-353): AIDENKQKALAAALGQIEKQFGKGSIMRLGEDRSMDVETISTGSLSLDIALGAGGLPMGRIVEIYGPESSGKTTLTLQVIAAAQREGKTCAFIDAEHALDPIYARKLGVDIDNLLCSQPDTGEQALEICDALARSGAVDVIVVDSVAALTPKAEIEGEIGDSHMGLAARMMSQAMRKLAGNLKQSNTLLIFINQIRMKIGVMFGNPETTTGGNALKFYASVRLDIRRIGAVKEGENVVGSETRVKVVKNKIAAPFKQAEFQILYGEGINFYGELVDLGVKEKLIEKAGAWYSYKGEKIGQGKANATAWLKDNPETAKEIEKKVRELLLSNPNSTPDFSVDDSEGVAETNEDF

Question: Which activity (homologous replacement after microinjection of RecA-coated DNA) does the source give for “CFTR 491-nt fragment (exon 10 and flanking introns) ; CFTR deltaF508 genomic locus” here?
Answer: > 0.00025 frequency

Question: Which activity (blue NIH3T3 cells (6/168), 0% without RecA, D-loop also seen on agarose gel) does the source give for lacZ 276-mer probe ; pMC1lacXpA here?
Answer: 3.6%
